Laboratory results from patent US20230257727.

What was measured:
[1] = target: T1, Test peptide LMSHNARGAEDDVVRGGGGK linked to a DNA oligo
T1 chain: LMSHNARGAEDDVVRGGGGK

[2] = target: Polypeptides with M15-L-labeled P1 residues A, I, L, M, Q, V
M15-LAAR = target: T2, M15-LAAR
T2 chain: LAAR

[3] = target: M15-L-P1-AR peptides with D or E in the P1 position
M19-LAAR = target: T3, M19-LAAR
T3 chain: LAAR

M19-AAAR = target: T4, M19-AAAR
T4 chain: AAAR

B1: Unmodified dipeptidyl aminopeptidase DAP BII (SEQ ID NO: 13) (protein)
chain: GEGMWVPQQLPEIAGPLKKAGLKLSPQQISDLTGDPMGAVVALGGCTASFVSPNGLVVTNHHCAYGAIQLNSTAENNLIKNGFNAPTTADEVSAGPNARVFVLDEITDVTKDAKAAIAAAGDDALARTKALEAFEKKLIADCEAEAGFRCRLYSFSGGNTYRLFKNLEIKDVRLAYAPPGSVGKFGGDIDNWMWPRHTGDFAFYRAYVGKDGKPAAFSKDNVPYQPKHWLKFADQPLGAGDFVMVAGYPGSTNRYALAAEFDNTAQWTYPTIARHYKNQIAMVEAAGKQNADIQVKYAATMAGWNNTSKNYDGQLEGFKRIDAAGQKLREEAAVLGWLKGQGAKGQPALDAHAKLLDLLEQSKATRDRDLTLALFNNTAMLGSATQLYRLSIEREKPNAERESGYQERDLPAIEGGLKQLERRYVAAMDRQLQEYWLNEYIKLPADQRVAAVDAWLGGNDAAAVKRALDRLAGTKLGSTEERLKWFAADRKAFEASNDPAIQYAVAVMPTLLKLEQERKTRAGENLAARPVYLQALADYKKSQGEFVYPDANLSLRITFGNVMGYAPKDGMEYTPFTTLEGVVAKETGQDPFDSPKALLDAVAAKRYGGLEDKRIGSVPVNYLSDLDITGGNSGSPVLDAHGKLVGLAFDGNWESVSSNWVFDPKMTRMIAVDGRYLRWIMQEVYPAPQLLKEMNVGK
[1]
  cleavage of a peptide-DNA fusion, gel bands at 0, 5, 30, 45, 60 min: would continue gradually cleaving the polypeptide, creating multiple bands during the cleavage reaction (FIG. 10)

B2: M15-L_Z001 modified cleavase (Thermomonas hydrothermalis S46 DPP scaffold) (protein)
chain: MHKTRLVAALAAALATLAPAAWADEGMWVPQQLPEIAGALKKAGLKLDPKQLSDLTGDPMGAVVSLGGCTGSFVSPQGLVATNHHCAYGAIQLNSTPEKNLIKDGFNAPTQADELSAGPNARIYVLEGITDVTAQAKAAMAAAGNDPVARANALEAFEKKITSDCEAEPGYRCRVYSFMGGITYRLFKNLEIKDVRLVYAPPSSVGKFGGDIDMGMWPTHTGDFSFYRAYVGKDGKPAPYSKDNVPYRPKHWLKIADTPLGEGDFVMVAGYPGRTDRYALVAEFENTQNWLYPAISKAYKDQIALVEAAAKDNPEIAVKYAAALAGWNRTSKNFDGQLEGFKRNDVLAIKRREEAAVLEWLRARGKAGTPALEAHAALVKLVADTARTQERDLVLGSFNRTGIIGVAVNLYRLAIERQKPDAEREPGYQQRDLPVIEGSLKQMERRYVPAMDRQLRAYWLDRYVALPAAQHVAAVDAWLGGSDKAAAEAALARLDQSRLGSLEERLKWFNADRAAFEASTDPAIQYAVAVMPTLLAMEQQAKTRYGVALEARPRYLQAVVDYKKSKGQAVYPDANSTLRITYGHVKGYTGLNGKVYTPFTTLEEVAAKETGVEPFDNPKALLEAVAAKRYAGLADARLGTVPVNFLADLDITGGNSGSPVLDANGRLVGLAFAGTLESVASNWVFDPVLTRMISVDQRYMRWIMQEVMPAPQLLEELGVPPRQ
[2]
  cleavage: provided 100% cleavage
M15-LAAR
  cleavage efficiency, time course 5, 10, 20, 30 and 60 minutes: the M15-L_Z001 cleavase provided better specificity towards the M15-labeled polypeptide

B3: M15-L_Z002 modified cleavase (Thermomonas hydrothermalis S46 DPP scaffold) (protein)
chain: MHKTRLVAALAAALATLAPAAWADEGMWVPQQLPEIAGALKKAGLKLDPKQLSDLTGDPMGAVVSLGGCTGSFVSPQGLVATNHHCAYGAIQLNSTPEKNLIKDGFNAPTQADELSAGPNARIYVLEGITDVTAQAKAAMAAAGNDPVARANALEAFEKKITSDCEAEPGYRCRVYSFMGGITYRLFKNLEIKDVRLVYAPPSSVGKFGGDIDMGMWPTHTGDFSFYRAYVGKDGKPAPYSKDNVPYRPKHWLKIADTPLGEGDFVMVAGYPGRTDRYALVAEFENTQNWLYPAISKAYKDQIALVEAAAKDNPEIAVKYAAALAGWNRTSKNFDGQLEGFKRNDVLAIKRREEAAVLEWLRARGKAGTPALEAHAALVKLVADTARTQERDLVLGSFNRTGIIGVAVNLYRLAIERQKPDAEREPGYQQRDLPVIEGSLKQMERRYVPAMDRQLRAYWLDRYVALPAAQHVAAVDAWLGGSDKAAAEAALARLDQSRLGSLEERLKWFNADRAAFEASTDPAIQYAVAVMPTLLAMEQQAKTRYGVALEARPRYLQAVVDYKKSKGQAVYPDANSTLRITYGHVKGYTGLNGKVYTPFTTLEEVAAKETGVEPFDNPKALLEAVAAKRYAGLADARLGTVPVNFLADLDITGGNSGSPVLDANGRLVGLAFAGTLESVASNWVFDPVLTRMISVDQRYMRWIMQEVMPAPQLLEELGVPPRQ
[3]
  cleavage profile: M15-L_Z002, having specificity towards D and E in the P1 position

B4: M19_053 cleavase clone (Thermomonas hydrothermalis S46 DPP scaffold) (protein)
chain: MHKTRLVAALAAALATLAPAAWADEGMWVPQQLPEIAGALKKAGLKLDPKQLSDLTGDPMGAVVSLGGCTGSFVSPQGLVATNHHCAYGAIQLNSTPEKNLIKDGFNAPTQADELSAGPNARIYVLEGITDVTAQAKAAMAAAGNDPVARANALEAFEKKITSDCEAEPGYRCRVYSFMGGITYRLFKNLEIKDVRLVYAPPSSVGKFGGDIDMGMWPTHTGDFSFYRAYVGKDGKPAPYSKDNVPYRPKHWLKIADTPLGEGDFVMVAGYPGRTDRYALVAEFENTQNWLYPAISKAYKDQIALVEAAAKDNPEIAVKYAAALAGWNPTSKNFDGQLEGFKRNDVLAIKRREEAAVLEWLRARGKAGTPALEAHAALVKLVADTARTQERDLVLGSFNRTGIIGVAVNLYRLAIERQKPDAEREPGYQQRDLPVIEGSLKQMERRYVPAMDRQLRAYWLDRYVALPAAQHVAAVDAWLGGSDKAAAEAALARLDQSRLGSLEERLKWFNADRAAFEASTDPAIQYAVAVMPTLLAMEQQAKTRYGVALEARPRYLQAVVDYKKSKGQAVYPDANSTLRITYGHVKGYTGLNGKVYTPFTTLEEVAAKETGVEPFDNPKALLEAVAAKRYAGLADARLGTVPVNFLADLDITGGNSGSPVLDANGRLVGLAFAGTLESVASNWVFDPVLTRMISVDQRYMRWIMQEVMPAPQLLEELGVPPRQ
M19-LAAR
  cleavage efficiency, time course 5, 10, 20, 30 and 60 minutes: the newly selected cleavase clone M19_053 provided better specificity towards the M19-labeled polypeptide

B5: P1 cutter 1 (Thermomonas hydrothermalis S46 DPP scaffold) (protein)
chain: MHKTRLVAALAAALATLAPAAWADEGMWVPQQLPEIAGALKKAGLKLDPKQLSDLTGDPMGAVVSLGGCTGSFVSPQGLVATNHHCAYGAIQLNSTPEKNLIKDGFNAPTQADELSAGPNARIYVLEGITDVTAQAKAAMAAAGNDPVARANALEAFEKKITSDCEAEPGYRCRVYSFMGGITYRLFKNLEIKDVRLVYAPPSSVGKFGGDIDTMMWPKHTGDFSFYRAYVGKDGKPAPYSKDNVPYRPKHWLKIADTPLGEGDFVMVAGYPGRTDRYALVAEFENTQNWLYPAISKAYKDQIALVEAAAKDNPEIAVKYAAALAGWNYTSKNFDGQLEGFKRNDVLAIKRREEAAVLEWLRARGKAGTPALEAHAALVKLVADTARTQERDLVLGSFNRTGIIGVAVNLYRLAIERQKPDAEREPGYQQRDLPVIEGSLKQMERRYVPAMDRQLRAYWLDRYVALPAAQHVAAVDAWLGGSDKAAAEAALARLDQSRLGSLEERLKWFNADRAAFEASTDPAIQYAVAVMPTLLAMEQQAKTRYGVALEARPRYLQAVVDYKKSKGQAVYPDANSTLRITYGHVKGYTGLNGKVYTPFTTLEEVAAKETGVEPFDNPKALLEAVAAKRYAGLADARLGTVPVNFLADLDITGGNSGSPVLDANGRLVGLAFDGTLESVASNWVFDPVLTRMISVDQRYMRWIMQEVMPAPQLLEELGVPPRQ
M19-AAAR
  cleavage, product identified by LC-MS: the observed mass of the cleaved product was 230.2 Da, which matched well with the expected mass for the M19-A (M+H) part (231.2 Da)
